pIC50: −log10 of the molar value. Values joined by “and” are separate entries in the source; they are usually repeats but may differ in a detail not shown here. Identical values can stand only once.
Columns and labels:
[1] = target: human IGF-I receptor on cells (NIH-3T3 fibroblasts expressing the human IGF-IR; DU145 cells) (human) (UniProt P08069); test: competition with 125I-IGF-I, NIH-3T3 cells expressing human IGF-1R, 37 C
[2] = target: human IGF-I receptor on cells (NIH-3T3 fibroblasts expressing the human IGF-IR; DU145 cells) (human) (UniProt P08069); test: competition with 125I-IGF-II, NIH-3T3 cells expressing human IGF-1R, 37 C
[3] = target: human IGF-I receptor on cells (NIH-3T3 fibroblasts expressing the human IGF-IR; DU145 cells) (human) (UniProt P08069); test: cell-based or functional assay
[4] = target: human IGF-I receptor on cells (NIH-3T3 fibroblasts expressing the human IGF-IR; DU145 cells) (human) (UniProt P08069); test: competition with 125I-IGF-I, NIH-3T3 cells expressing human IGF-1R, 4 C
[5] = target: human IGF-I receptor on cells (NIH-3T3 fibroblasts expressing the human IGF-IR; DU145 cells) (human) (UniProt P08069); test: competition with 125I-IGF-II, NIH-3T3 cells expressing human IGF-1R, 4 C

pIC50 [1]	pIC50 [2]	IC50 (nM), IGF-1 dependent proliferation of NIH-3T3/hIGF-1R cells (BrdU ELISA) [3]	pIC50 [4]	pIC50 [5]	Substance
< 7.30	< 7.30	> 70 nM	–	–	MOPC-21 (#M-7894, Sigma), IgG1 isotype control (antibody)
–	< 7.30	> 70 nM	–	–	UPC-10 (#F-0528), IgG2a isotype control (antibody)
8.77 and 8.72	8.40 and 8.19	–	8.52 and 8.82 and 8.40	9.00 and 9.22	mouse anti-IGF-1R monoclonal antibody 24-57 (#MS-643-PABX, NeoMarkers)
8.80 and 8.72	< 7.30	> 70 nM	8.46	–	mouse anti-IGF-1R monoclonal antibody alpha IR3 (#GR11SP2, Oncogene Research Products)

Reference: patent US20040202655A1
